This passage reports Kd results from US20240174741A1 (IMMUNOME, published 2024).

As a reminder, the Kd is the concentration at which binding is half-saturated. Higher therefore signals lower affinity.

For the experiment, the target named is T1, human interleukin-38 (IL-38) (human, UniProt Q8WWZ1 1-152).
T1 construct: The Adipogen protein is called full length; also called IL1F10/IL38; IL1F10
T1 sequence (looked up): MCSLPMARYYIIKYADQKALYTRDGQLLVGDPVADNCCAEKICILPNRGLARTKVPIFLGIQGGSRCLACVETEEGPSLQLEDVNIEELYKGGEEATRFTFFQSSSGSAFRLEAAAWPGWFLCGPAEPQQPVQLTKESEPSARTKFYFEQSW
Nature of the experiment: BLI (Octet QKe), antibody on anti-mouse Fc biosensors, soluble IL-38, 1:1 model. How it is done: Antibody was loaded to AMC probes, blocked in the kinetics buffer for 1 min (baseline) and dipped into an appropriate IL-38 solution. IL-38 association to antibodies of interest was measured for 180 seconds at 28° C. Biosensors were subsequently dipped into kinetics buffer-containing wells and the protein dissociation was measured for 600 s. KD, Kon and Kdis values were identified using the 1:1 built-in model of the ForteBio's Data Analysis 9 software.
A general note: BLI is a label-free optical method that tracks binding on a fibre tip over time.

B1: CD1-M3 (antibody, V domains shown)
VH: EVQLQQSGPELVKPGASVKIPCKASGYTFTDYNMDWVKQSHGKSLEWIGDINPNNGGTIYNQKFKGKATLTVDKSSSTAYMELRSLTSEDTAVYYCSRPYYGYFAYWGQGTLVTVSA
VL: DVVMTQSPLSLPVSLGDQASISCRSSQSLVHSHENTFLHWYLQKPGQSPKLLIYRVSNRFSGVPDRFSGSGSGTDFTLKISRVEAEDLGVYFCSQSTHVPLTFGAGTKLELK
notes: Mouse monoclonal from a hybridoma of a CD-1 mouse immunized with full length recombinant IL-38
With B1, the Kd was determined as 0.721 nM.
